Reference: the supplement of paper PMC11780869

Tested on: Bacillus subtilis
Experiment: cleaved RNA product abundance (RNA/gDNA barcode ratio) relative to median wild-type variant (ratio to wild type); higher = more accumulation of the downstream cleavage product
Outline: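 Reporter mRNAs (truncated aprE or tetM) carrying barcoded, mutagenized RNase Y cleavage-site windows were made from oligos with a 9% error rate and integrated into the B. subtilis chromosome. Cultures grew in LB at 37°C from OD600 0.0003 to 0.3. Cleaved RNA was gel-selected, reverse transcribed and barcode-sequenced alongside genomic DNA barcodes, with UMI collapsing. Cleaved product abundance is the RNA:gDNA barcode ratio per variant, scaled to the median wild-type variant.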

[1] = experiment (reporter, strain, medium): exp 8a: truncated aprE reporter, strain BJT201 with 2% xylose (RNase J1 expressed), cleavage site: glnRA (positions -5 to +31 mutated)
[2] = experiment (reporter, strain, medium): exp 2b: truncated aprE reporter, strain BJT200, cleavage site: cggR-gapA (positions -7 to +36 mutated)
[3] = experiment (reporter, strain, medium): exp 4a: truncated aprE reporter, strain BJT201 with 2% xylose (RNase J1 expressed), cleavage site: cggR-gapA (positions -7 to +36 mutated)
[4] = experiment (reporter, strain, medium): exp 6: tetM reporter, strain 168, cleavage site: cggR-gapA (positions -7 to +36 mutated)

Sequence	cleaved RNA product abundance [1]	cleaved RNA product abundance [3]	also measured
CGACATGTCCCGCTTCTTTCATTAATCCGTTACCAACTGTTTTGCTATATACAATTACCTTTTAAGAGGAGGAAT	0.181	–	–
ACAGACGAAGGAGCCGCAAAGAAGTTATTAAGGTATGAATAATCCCTCAATACAAATATCTCTCACTTATTTAAA	–	–	cleaved RNA product abundance [2]: 0.0986
ACAGACGAAGGAGCCGCAAAGTAGTTATTAATGGATGAATAATCCCTCAATATAAATATCTCTCACTTATTTAAA	–	0.166	cleaved RNA product abundance [2]: 0.0916
ACAGACGAAGGAGCCGCAAAGAAGTTATTAAGAGATGAATAATCCCTGAATATAAATATCTCTCACTTATTTAAA	–	0.0805	–
ACAGACGAAGGAGCCGCAAAGAAGTTATTAAGGAATGAATAATCCCTCAATATAAATACCTCTCACTTATTTAAA	–	–	cleaved RNA product abundance [2]: 0.0997
ACAGACGAAGGAGCCGCAAAGAAGTTATTATCGGATGAATAATCCCTCAATATAAATATCTCTCACTTATTTAAA	–	0.178	–
ACAGACGAAGGAGCCGCCAAGAAGTTATTAAGGGATGAAAAATCCCTCAATATAAATATCTCTCACTTATTTAAA	–	0.576	–
ACAGACGAAGGAGCCGCAAAGTACTTATTAAGGGATGAATAATCCCTCAATATAAATATCTCTCACTTATTTAAA	–	0.803	cleaved RNA product abundance [2]: 0.437
ACAGACGAAGGAGCCGCAAAGAAGTTATTAAGGCATGAATAATCCCTCAAAATAAATATCTCTCACTTATTTAAA	–	0.141	cleaved RNA product abundance [2]: 0.0982
ACAGACGAAGGAGCCGCAAAGAAGTTATTAAGGGATGAATAATCCCTCAATATAAATAACTCTCACTTATTTAAA	–	0.849	cleaved RNA product abundance [2]: 0.903; cleaved RNA product abundance [4]: 0.706
ACAGACGAAGGAGCCGCAAAGATGTTATTAAGGTATGAATAATCCCTCAATATAAATATCTCTCACTTATTTAAA	–	0.161	–
CGACATGTCCCGCTTCTTTCATTAATCCGTTATAAACTGTTTTGCTATATACATTTACCTTTTAAGAGGAGGAAT	0.276	–	–
ACAGACGAAGGAGCCGCAAAGAAGTTATTAAGGGATTAATAATCCCTCAATATAAATCTCTCTCACTTATTTAAA	–	0.637	–
ACAGACGAAGGAGCCGCAAAGAAGTTATTAAGGGATGAATTATCCCTAAATATAAATATCTCTCACTTATTTAAA	–	0.433	cleaved RNA product abundance [2]: 0.399
CGACATGTCCCGCTTCTTTCATTAATCCGTTAGAAACTGTTTTGCTATATACATTTACTTTTTAAGAGGAGGAAT	0.331	–	–
ACAGACGAAGGAGCCGCAAAGAAGTTATTAAGGCATGAATAATCCCTCAATAAAAATATCTCTCACTTATTTAAA	–	0.0606	–
ACAGACGAAGGAGCCGCAAAGAATTTATTCAGGGATGAATAATCCCTCAATATAAATATCTCTCACTTATTTAAA	–	0.549	cleaved RNA product abundance [2]: 0.624
ACAGACGAAGGAGCCGCAAAGAAGTTATCAAGCGATGAATAATCCCTCAATATAAATATCTCTCACTTATTTAAA	–	0.0711	–
ACAGACGAAGGAGCCGCAAAGAAGTTATTAATAGATGAATAATCCCTCAATATAAATATCTCTCACTTATTTAAA	–	0.116	cleaved RNA product abundance [2]: 0.0972
CGACATGTCCCGCTTCTTTCATTAATCCGTTAGCAAATGTTTTGCTATATACATTAACCTTTTAAGAGGAGGAAT	1.13	–	–
ACAGACGAAGGAGCCGCAAAGAAGTCATTAAGGGATGAATAAACCCTCAATATAAATATCTCTCACTTATTTAAA	–	0.176	–

Sequence	cleaved RNA product abundance [1]	cleaved RNA product abundance [3]	also measured
ACAGACGAAGGAGCCGCAAAGAAGTTATTAAGCGATCAATAATCCCTCAATATAAATATCTCTCACTTATTTAAA	–	0.0886	cleaved RNA product abundance [2]: 0.0893
CGACATGTCCCGCTTCTTTCATTAATCCGTTAGCAACTGTATTGCTATATACATTTATCTTTTAAGAGGAGGAAT	1.07	–	–
ACAGACGAAGGAGCCGCAAAGAAGTCATTAAGGGATGAATAATCGCTCAATATAAATATCTCTCACTTATTTAAA	–	0.107	–
CGACATGTCCCGCTTCTTTCATTAATCCTTTAGCAACTGTTTTGCTATAAACATTTACCTTTTAAGAGGAGGAAT	0.176	–	–
CGACATGTCCCGCTTCTTTCATTAATACATTAACAACTGTTTTGCTATATACATTTACCTTTTAAGAGGAGGAAT	0.235	–	–
ACAGACGAAGGAGCCGCAAAGAAGTTATTAACGGATGAATAATCCCTCAAAATAAATATCTCTCACTTATTTAAA	–	0.158	cleaved RNA product abundance [2]: 0.105
ACAGACGAAGGAGCCGCAAAAAAGTTATTAAGGGATGAATAATCCCTCAATCTAAATATCTCTCACTTATTTAAA	–	–	cleaved RNA product abundance [2]: 0.137
ACAGACGAAGGAGCCGCAAAAAAGTTATTAACGGATTAATAATCCCTCAATATAAATATCTCTCACTTATTTAAA	–	0.142	–
CGACATGTCCCGCTTCTTTCATTAATCCGTTAGCAACTGTTTTGCTATATACATTTACCCTTTTAAGAGGAGGAA	0.756	–	–
ACAGACGAAGGAGCCGCAAAGAAGTTATTAAGGGTTAAATAATCCCTCAATATAAATATCTCTCACTTATTTAAA	–	0.753	–
ACAGACGAAGGAGCCGCAAAGAAGTTATGAAGGGATGAATAATCGCTCAATATAAATATCTCTCACTTATTTAAA	–	0.0808	–
CGACATGTCCCGCTTCTTTCATTAATCCGTTAGCCACTGTTTTGCTATATACAGTTACCTTTTAAGAGGAGGAAT	0.244	–	–
CGACATGTCCCGCTTCTTTCATTAATCCGTTAGCAACTGTTTTGCAATATACATTTACCTTTTAAGAGGAGGAAT	0.436	–	–
ACAGACGAAGGAGCCGCAAAGAATTTATTAAGGGATGAATAATCCCTCAATATAAATATCTCTCACTTATTTAAA	–	0.743	cleaved RNA product abundance [2]: 0.775; cleaved RNA product abundance [4]: 0.623
ACAGACGAAGGAGCCGCAAAGAACTTATGAAGGGATGAATAATCCCTCAATATAAATATCTCTCACTTATTTAAA	–	–	cleaved RNA product abundance [2]: 0.274
ACAGACGAAGGAGCCGCAAAGAAGTTATTAAGGGATGAATAATCCCTCAAGATAAATATTTCTCACTTATTTAAA	–	0.27	–
ACAGACGAAGGAGCCGCAAAGAAGTTCTTCAGGGATGAATAATCCCTCAATATAAATATCTCTCACTTATTTAAA	–	0.262	–
ACAGACGAAGGAGCCGCAAAGTAGTTATTAAGTGATGAATAATCCCTCAATATAAATATCTCTCACTTATTTAAA	–	0.116	cleaved RNA product abundance [2]: 0.106
CGACATGTCCCGCTTCTTTCATTAATCCGTTAGCAACTGTTTAGTTATATACATTTACCTTTTAAGAGGAGGAAT	0.327	–	–
ACAGACGAAGGAGCCGCAAAGAAGTTAATAAGGGATGAATAATCGCTCAATATAAATATCTCTCACTTATTTAAA	–	0.0788	–
ACAGACGAAGGAGCCGCAAAGAAGTTATTAAGGGATGATTAATCCCACAATATAAATATCTCTCACTTATTTAAA	–	0.276	–

Sequence	cleaved RNA product abundance [1]	cleaved RNA product abundance [3]	also measured
ACAGACGAAGGAGCCGCAAAGAAGTTATTAAGGGATGTATAATTCCTCAATATAAATATCTCTCACTTATTTAAA	–	0.576	–
ACAGACGAAGGAGCCGCAAAGAAGTTATTAAGGGATGAATAATCCCTAAACATAAATATCTCTCACTTATTTAAA	–	0.323	–
CGACATGTCCCGCTTCTTTCATTAATCCGTTAGCAACTGTTTTGCTAGATACATATACCTTTTAAGAGGAGGAAT	0.781	–	–
CGACATGTCCCGCTTCTTTCATTAATCCGTTAGCAATTGTTTTGCTATATACATTCACCTTTTAAGAGGAGGAAT	0.849	–	–
CGACATGTCCCGCTTCTTTCATTAATCCGTTAGCAATTGTTTTGCTATATACATTAACCTTTTAAGAGGAGGAAT	1.62	–	–
ACAGACGAAGGAGCCGCAAAAAAGTTATTAAGGGATGAATAATCCCTCAATATAAATTTCTCTCACTTATTTAAA	–	1.04	–
CGACATGTCCCGCTTCTTTCATTAATCTGTTAGCAACTGTTTTGCTATATACATTTACCTTTTAAGAGGAGGAAT	1.16	–	–
CGACATGTCCCGCTTCTTTCATTAATCCGTTAGCAACTGTTTTGCCACGTACATTTACCTTTTAAGAGGAGGAAT	0.0527	–	–
CGACATGTCCCGCTTCTTTCATTATTCCGTTAGCAACTGTTTTGCTATATAGATTTACCTTTTAAGAGGAGGAAT	1.02	–	–
ACAGACGAAGGAGCCGCAAAGAAGTTATTAAGGGATGAATAATTCCGCAATATAAATATCTCTCACTTATTTAAA	–	0.188	–
ACAGACGAAGGAGCCGCAAAGAAGTTATTATGGGATGAATAATCCCTCAAAATAAATATCTCTCACTTATTTAAA	–	0.277	–
CGACATGTCCCGCTTCTTTCATTAATCCGTTAGCAACAGTTTTGCTATACACATTTACCTTTTAAGAGGAGGAAT	0.557	–	–
ACAGACGAAGGAGCCGCAAAGAAGTTATTAAGGGATGAATAATCCTTCAATGTAAATATCTCTCACTTATTTAAA	–	0.167	–
ACAGACGAAGGAGCCGCAAAGAAGTTAATAAGGGATGAATGATCCCTCAATATAAATATCTCTCACTTATTTAAA	–	0.284	–
CGACATGTCCCGCTTCTTTCATTAATCCGTTAGCAACTGTTTTGCTATATACATATACCTTTTAAGAGGAGGAAT	1.04	–	–
ACAGACGAAGGAGCCGCAAAGAAGTTATTAATGTATGAATAATCCCTCAATATAAATATCTCTCACTTATTTAAA	–	0.1	cleaved RNA product abundance [2]: 0.101
ACAGACGAAGGAGCCGCAAAAAAGTTATTAAGGGATGAATAATCCCTCAATATATATATCTCTCACTTATTTAAA	–	1.08	–
ACAGACGAAGGAGCCGCAAAGAAGTTATAAAGGGATGAATAATCCCTCAAAATAAATATCTCTCACTTATTTAAA	–	0.292	–
ACAGACGAAGGAGCCGCAAAGAAGTTATTAAGGGTTGAATAATCCCTCAATATAAATTTCTCTCACTTATTTAAA	–	0.436	–
